Columns and labels:
[1] = system: CD4 T cells from healthy donors; experiment: CD134/CD137 activation-induced marker flow cytometry of pooled specific T cell lines; assay type: cell-based, human; details: four donors, overnight re-stimulation with antigen-loaded DCs, unstimulated control removed
Protocol: Positive antigen-specific T cell lines determined by using the ELISPOT assay were pooled together at day 21, after 24 h of resting in IMDM medium and with the absence of cytokine stimuli. The pooled T cell lines were re-stimulated overnight with autologous DCs alone (control) or with DCs previously loaded with either 0.2 µM of rFVIII, 0.2 µM of ovalbumin, or 0.25 µM of KLH. Following 24 h of stimulation, cells were harvested in cell staining buffer (phosphate-buffered saline/EDTA 2 mM/bovine serum albumin 0.5%) and then stained for CD4 (Vio-Blue, clone REA623, Miltenyi Biotec) and activation-induced markers CD134 (OX-40) (PE anti-human, clone Ber-ACT35, Biolegend) and CD137 (4-1BB) (APC anti-human, clone 4B4-1, Biolegend). The CD4/CD134/CD137-positive population for each condition was sorted by flow cytometry ([…] III; Becton Dickinson, San Jose, CA, USA).
Firstly, we aimed to characterize the T cell response to rFVIII in vitro using chicken ovalbumin (Ova) as a non-self-protein benchmark. Given the low frequency of FVIII-specific T cells in healthy donors, we enriched the CD4 population in vitro before analyzing their specificity and sorting them for TCR CDR3β sequencing (Figure 1A). […] Antigen specificity was assessed using the IFN-γ ELISPOT assay. […] The average number per donor of detected clonotypes was 535 and 918, for a total of 2,143 and 3,672 clonotypes detected for FVIII and Ova. […]

[2] = system: CD4 T cells from healthy donors; experiment: IFN-γ ELISPOT of CD4 T cell lines raised against rFVIII, ovalbumin or KLH (four donors); assay type: cell-based, human
Excerpt: PBMCs were purified from the whole blood of anonymous healthy donors, who gave informed consent (Etablissement Français du Sang, Rungis, France), using Ficoll-Paque®. Monocyte-derived dendritic cells (DCs) were produced from cells isolated using Percoll gradient by 5 days of culture in AIM-V medium (Invitrogen, Villebon-sur-Yvette, France) supplemented with 1,000 U/ml recombinant human (rh) IL-4 and rhGM-CSF (both from R&D Systems, Lille, France). Mature DCs were produced by two supplementary days of culture in the presence of LPS (1 µg/ml) and R848 (10µg/ml). CD4 T cells were isolated from autologous PBMCs by positive selection using magnetic labeling with anti-CD4 mAbs conjugated to magnetic microbeads followed by magnetic cell sorting, as recommended by the manufacturer (Miltenyi Biotec, Bergisch Gladbach, Germany). Immature DCs were loaded overnight at 37 °C with either 0.2 µM of rFVIII, 0.2 µM of ovalbumin, or 0.25 µM of KLH in 96-well U-bottom plates, while mature DCs were used for FVIII peptides (10 ug/ml). […] 10,000 lymphocytes were collected at day 19 from each T cell line (expanded T cells contained in one well) and their specificity was assessed by using IFN-g ELISPOT.
T cells were incubated with autologous DCs alone (control) or with DCs incubated with rFVIII (0.2 µM), ovalbumin (3 µM), and KLH (1 µM) or PBMCs for FVIII peptides (10 µg/ml) in MultiScreen 96-well plates (Merck Millipore) previously coated with 2.5 µg/mL of anti-human IFN-γ monoclonal antibody (mAb; 1-D1K; Mabtech). […] The spot number was determined by using the ELISPOT Reader System (Autoimmun Diagnostika, Ebinger, Germany). HLA restriction was assessed using monoclonal antibodies (10 μg/ml) specific to HLA-DP (B7/21), HLA-DQ (SPVL3), or HLA-DR (L243).
Firstly, we aimed to characterize the T cell response to rFVIII in vitro using chicken ovalbumin (Ova) as a non-self-protein benchmark. […] Antigen specificity was assessed using the IFN-γ ELISPOT assay. […] The average number per donor of detected clonotypes was 535 and 918, for a total of 2,143 and 3,672 clonotypes detected for FVIII and Ova. […]

B1: ovalbumin: chicken ovalbumin, non-self-protein benchmark (protein, UniProt P01012 2-386, looked up)
Ovalbumin: GSIGAASMEFCFDVFKELKVHHANENIFYCPIAIMSALAMVYLGAKDSTRTQINKVVRFDKLPGFGDSIEAQCGTSVNVHSSLRDILNQITKPNDVYSFSLASRLYAEERYPILPEYLQCVKELYRGGLEPINFQTAADQARELINSWVESQTNGIIRNVLQPSSVDSQTAMVLVNAIVFKGLWEKAFKDEDTQAMPFRVTEQESKPVQMMYQIGLFRVASMASEKMKILELPFASGTMSMLVLLPDEVSGLEQLESIINFEKLTEWTSSNVMEERKIKVYLPRMKMEEKYNLTSVLMAMGITDVFSSSANLSGISSAESLKISQAVHAAHAEINEAGREVVGSAEAGVDAASVSEEFRADHPFLFCIKHIATNAVLFFGRCVSP
[1]
  mean activation percentage (CD134/CD137 double-positive of total CD4): 1.25%
[2]; Donor #1180, positive/tested T cell lines
  positive T cell lines: 13/24
[2]; among 96 T cell lines tested for each antigen, four healthy donors, specific = spot count twofold over control, minimum difference 25 spots
  specific T cell lines: 58
[2]; four healthy donors, estimated with Poisson distribution
  precursor frequency of antigen-specific CD4 T cells: 5 cells/M

From paper PMC10951066, “The self-reactive FVIII T cell repertoire in healthy individuals relies on a short set of epitopes and public clonotypes” (Frontiers in Immunology, 2024)
